Test results reported in patent publication US20200247894A1 (Regeneron, published 2020).

Key:
[1] = target: T1, Human IL2Rγ extracellular domain expressed with a C-terminal mouse IgG2a Fc tag (human); experiment: SPR Biacore 4000, anti-hFc-captured mAb, 37 C; no dissociation observed, kd manually fixed at 1.00E-05
T1 construct: whole entry is the Fc-fused construct; also called hIL-2Rg-mFc
T1 chain: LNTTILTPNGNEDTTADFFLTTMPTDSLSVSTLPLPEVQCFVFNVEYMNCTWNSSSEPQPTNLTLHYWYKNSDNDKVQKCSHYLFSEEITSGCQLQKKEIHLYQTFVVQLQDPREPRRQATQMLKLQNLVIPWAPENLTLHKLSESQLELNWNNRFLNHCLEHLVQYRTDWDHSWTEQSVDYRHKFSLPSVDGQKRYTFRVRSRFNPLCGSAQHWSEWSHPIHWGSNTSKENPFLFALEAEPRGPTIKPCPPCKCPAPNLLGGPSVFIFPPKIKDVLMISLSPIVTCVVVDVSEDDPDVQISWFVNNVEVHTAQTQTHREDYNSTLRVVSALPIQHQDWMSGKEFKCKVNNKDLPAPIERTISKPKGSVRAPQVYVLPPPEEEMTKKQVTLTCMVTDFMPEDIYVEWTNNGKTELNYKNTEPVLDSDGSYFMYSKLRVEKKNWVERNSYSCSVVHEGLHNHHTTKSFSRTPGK

[2] = target: T1, Human IL2Rγ extracellular domain …; experiment: SPR Biacore 4000, anti-hFc-captured mAb, 37 C; computed with kd fixed at 1.00E-05
Description: (§1) Equilibrium dissociation constants (KD values) for IL-2Rγ binding to purified anti-IL2Rγ monoclonal antibodies were determined using a Biacore 4000 instrument equipped with a real-time surface plasmon resonance biosensor. All binding studies were performed in 10 mM HEPES, 150 mM NaCl, 3 mM EDTA, and 0.05% v/v Surfactant Tween-20, pH 7.4 (HBS-ET) running buffer at 25° C. and 37° C. The Biacore sensor surface was first derivatized by amine coupling with a monoclonal mouse anti-human Fc antibody (GE, # BR-1008-39) to capture anti-IL2Rγ monoclonal antibodies.
(§2) The dissociation of monoclonal antibody bound IL2Rγ reagents were monitored for 8-10 minutes in HBS-ET running buffer. Kinetic association (kₐ) and dissociation (kd) rate constants were determined by fitting the real-time sensorgrams to a 1:1 binding model using Scrubber 2.0c curve fitting software. Binding dissociation equilibrium constants (KD) and dissociative half-lives (t_{1/2}) were calculated from the kinetic rate constants as: […]

[3] = target: T1, Human IL2Rγ extracellular domain …; experiment: SPR Biacore 4000, anti-hFc-captured mAb, 25 C; no dissociation observed, kd manually fixed at 1.00E-05
[4] = target: T2, Rat IL2Rγ extracellular domain expressed with a C-terminal myc-myc-hexahistidine tag (rat); experiment: SPR Biacore 4000, anti-hFc-captured mAb, 25 C
T2 construct: whole entry is the tagged construct; also called rIL-2Rg-MMH; rat IL-2Rg-MMH
T2 chain: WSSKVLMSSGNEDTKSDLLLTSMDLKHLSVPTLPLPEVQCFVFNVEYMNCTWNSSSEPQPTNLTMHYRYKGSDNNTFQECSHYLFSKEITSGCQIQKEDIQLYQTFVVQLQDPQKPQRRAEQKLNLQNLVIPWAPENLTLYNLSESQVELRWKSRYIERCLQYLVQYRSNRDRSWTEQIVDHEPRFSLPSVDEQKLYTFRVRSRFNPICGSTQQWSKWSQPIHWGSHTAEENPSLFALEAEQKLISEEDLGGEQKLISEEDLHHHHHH
Procedure, shortened: (§3)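 HBS-ET running buffer (10 mM HEPES, 150 mM NaCl, 3 mM EDTA, 0.05% Tween-20, pH 7.4). mAb capture via anti-human Fc. Dissociation monitored 8-10 min. 1:1 kinetic fit; KD, t1/2 derived from ka/kd.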

[5] = target: T3, Mouse IL2Rγ extracellular domain expressed with a C-terminal myc-myc-hexahistidine tag (mouse); experiment: SPR Biacore 4000, anti-hFc-captured mAb, 25 C
T3 construct: whole entry is the tagged construct; also called mIL-2Rg-MMH
T3 chain: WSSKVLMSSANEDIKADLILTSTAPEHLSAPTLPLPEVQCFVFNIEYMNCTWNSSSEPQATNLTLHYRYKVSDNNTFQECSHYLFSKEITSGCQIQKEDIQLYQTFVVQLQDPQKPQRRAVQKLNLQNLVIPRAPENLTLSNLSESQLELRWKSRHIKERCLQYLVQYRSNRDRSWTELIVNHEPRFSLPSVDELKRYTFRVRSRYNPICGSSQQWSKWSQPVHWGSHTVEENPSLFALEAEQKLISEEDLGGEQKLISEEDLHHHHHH
Procedure, shortened: as §3

[6] = target: T1, Human IL2Rγ extracellular domain …; experiment: SPR Biacore 4000, anti-hFc-captured mAb, 25 C
Procedure, shortened: as §3

[7] = target: T2, Rat IL2Rγ extracellular domain …; experiment: SPR Biacore 4000, anti-hFc-captured mAb, 37 C
Procedure, shortened: as §3

[8] = target: T3, Mouse IL2Rγ extracellular domain …; experiment: SPR Biacore 4000, anti-hFc-captured mAb, 37 C
Procedure, shortened: as §3

[9] = target: T4, Macaca fascicularis IL2Rγ extracellular domain expressed with a C-terminal myc-myc-hexahistidine tag (Macaca fascicularis); experiment: SPR Biacore 4000, anti-hFc-captured mAb, 37 C
T4 construct: whole entry is the tagged construct; also called mfIL-2Rg-MMH
T4 chain: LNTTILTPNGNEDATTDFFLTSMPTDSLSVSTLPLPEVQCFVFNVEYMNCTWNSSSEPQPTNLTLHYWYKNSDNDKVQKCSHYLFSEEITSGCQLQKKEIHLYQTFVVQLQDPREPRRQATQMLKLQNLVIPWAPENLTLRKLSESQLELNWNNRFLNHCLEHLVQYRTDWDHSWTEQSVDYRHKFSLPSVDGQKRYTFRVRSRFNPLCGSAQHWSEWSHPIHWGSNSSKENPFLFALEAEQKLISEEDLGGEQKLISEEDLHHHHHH
Procedure, shortened: as §3

[10] = target: T1, Human IL2Rγ extracellular domain …; experiment: SPR Biacore 4000, anti-hFc-captured mAb, 37 C
Procedure, shortened: as §3

[11] = target: T1, Human IL2Rγ extracellular domain …; experiment: SPR Biacore 4000, anti-hFc-captured mAb, 25 C; computed with kd fixed at 1.00E-05
Description: as §1, §2

koff [1]: ≤ 1e-05 s⁻¹
Kd [2]: ≤ 0.518 nM
t1/2 [2]: ≥ 1160 min
koff [3]: ≤ 1e-05 s⁻¹
100 nM Ag Bound [4]: 19 RU
Kd [4]: 79.3 nM
koff [4]: 0.00237 s⁻¹
kon [4]: 29800 M⁻¹ s⁻¹
t1/2 [4]: 5 min
100 nM Ag Bound [5]: 25 RU
Kd [5]: 108 nM
koff [5]: 0.00367 s⁻¹
kon [5]: 34100 M⁻¹ s⁻¹
t1/2 [5]: 3.1 min
50 nM Ag Bound [6]: 11 RU
kon [6]: 76200 M⁻¹ s⁻¹
100 nM Ag Bound [7]: 8 RU
Kd [7]: 215 nM
koff [7]: 0.00835 s⁻¹
kon [7]: 38900 M⁻¹ s⁻¹
t1/2 [7]: 1.4 min
100 nM Ag Bound [8]: 6 RU
Kd [8]: 387 nM
koff [8]: 0.0293 s⁻¹
kon [8]: 75700 M⁻¹ s⁻¹
t1/2 [8]: 0.4 min
100 nM Ag Bound [9]: 13 RU
Kd [9]: 39.8 nM
koff [9]: 0.00148 s⁻¹
kon [9]: 37100 M⁻¹ s⁻¹
t1/2 [9]: 8 min
50 nM Ag Bound [10]: 8 RU
kon [10]: 19300 M⁻¹ s⁻¹
Kd [11]: ≤ 0.131 nM
t1/2 [11]: ≥ 1160 min
B1: H4H12908P (antibody, human IgG4 S228P, kappa, V domains shown)
VH: EVQLVESGGRLVQPGGSLRLSCEASGFTFSNYGMTWVRQAPGKGLEWVSVISGSDNRKYYAESVKGRFTISRDNSKNTLYLQMNSLRAEDTAVYYCAKLGYSRSSKDFYYGMDVWGQGTTVTVSS
VL: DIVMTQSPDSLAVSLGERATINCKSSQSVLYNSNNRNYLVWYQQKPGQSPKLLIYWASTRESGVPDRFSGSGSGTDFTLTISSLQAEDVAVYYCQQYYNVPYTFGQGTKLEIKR
notes: fully human anti-IL2Rgamma mAb, human IgG4 Fc
